The values below come from paper PMC5095531.

This test deals with T1, native human lipocalin 2 (LCN2) (human), P80188.
T1 chain: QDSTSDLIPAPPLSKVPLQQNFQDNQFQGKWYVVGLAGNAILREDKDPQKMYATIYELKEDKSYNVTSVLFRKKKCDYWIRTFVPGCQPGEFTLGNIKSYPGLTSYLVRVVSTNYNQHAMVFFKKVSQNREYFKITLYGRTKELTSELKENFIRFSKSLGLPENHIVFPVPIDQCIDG
The experiment in a line: non-reducing SDS-PAGE with immunoblot; purified proteins in vitro, non-reducing conditions, anti-human LCN2 antibodies; monomer about 20 kDa, dimer about 40 kDa. The note with it: remark: other sources report otherwise.

B1: native human lipocalin 2 (LCN2), P80188-1 21-198 (natural protein)
chain: T1 chain
The molecule B1 gave a stoichiometry N of 2.
